Test results published in patent US20220364142.
Positions count from the first letter of the chain named. Numbers in names are those of the source.

T1: Consensus peptide P4'A (EVKALEEA) (not fully specified)
T1 chain: EVKALEEA

T2: Consensus peptide P2R (EVRALEEA) (not fully specified)
T2 chain: EVRALEEA

T3: Consensus peptide P3GP1'V (EGKAVLEA) (not fully specified)
T3 chain: EGKAVLEA

T4: DABCYL-TPLKSPPPSPR-EDANS (Calpain Substrate III; Calbiochem)
T4 chain: TPLKSPPPSPR

T5: Consensus peptide P4'P (EVKALEEP) (not fully specified)
T5 chain: EVKALEEP

T6: PR1476 peptide
T6 chain: RQNRGGGCINH

T7: PR1478 peptide
T7 chain: WRQNRGGGCINH

B1: CAPN5-G267S protease core domain (protein)
chain: MFSCVKPYEDQNYSALRRDCRRRKVLFEDPLFPATDDSLYYKGTPGPAVRWKRPKGICEDPRLFVDGISSHDLHQGQVGNCWFVAACSSLASRESLWQKVIPDWKEQEWDPEKPNAYAGIFHFHFWRFGEWVDVVIDDRLPTVNNQLIYCHSNSRNEFWCALVEKAYAKLAGCYQALDGGNTADALVDFTGGVSEPIDLTEGDFANDETKRNQLFERMLKVHSRGGLISASIKAVTAADMEARLACGLVKGHAYAVTDVRKVRLGHSLLAFFKSEKLDMIRLRNPWGEREWNGPWSDTSEEWQKVSKSEREKMGVTVQDDGEFWMTFEDVCRYFTDIIKCRVI
B2: Calpain-5 protease core domain (CAPN5-PC) (protein)
chain: B1 chain with S267G

What was measured:
[1] = target: T1, Consensus peptide P4'A (EVKALEEA)
[2] = target: T2, Consensus peptide P2R (EVRALEEA)
[3] = target: T3, Consensus peptide P3GP1'V (EGKAVLEA)
[4] = target: T4, DABCYL-TPLKSPPPSPR-EDANS (Calpain …)
[5] = target: T5, Consensus peptide P4'P (EVKALEEP)
PR1476 peptide = target: T6, PR1476 peptide
PR1478 peptide = target: T7, PR1478 peptide

| Protein | hydrolysis of consensus FRET peptide [1] | catalytic efficiency (kcat/Km) [2] [vs. 7 M^-1s^-1] | hydrolysis of consensus FRET peptide [2] | substrate turnover (kcat) [2] | hydrolysis of consensus FRET peptide [3] | hydrolysis of FRET substrate (EDANS signal) [4] | hydrolysis of consensus FRET peptide [5] | catalytic efficiency (kcat/Km) (PR1476 peptide) [vs. 7 M^-1s^-1] | proteolytic cleavage of FRET peptide substrate (EDANS fluorescence) (PR1476 peptide) | proteolytic cleavage of FRET peptide substrate (EDANS fluorescence) (PR1478 peptide) | substrate quality compared with PR1476 (PR1478 peptide) |
| --- | --- | --- | --- | --- | --- | --- | --- | --- | --- | --- | --- |
| B1 | These substrates were hydrolyzed by 1.6 µM CAPN5-PC p.G267S in the presence of 10 mM Ca^2+ | 11 | These substrates were hydrolyzed by 1.6 µM CAPN5-PC p.G267S in the presence of 10 mM Ca^2+ | The observed substrate turnover (kcat) of these consensus peptides indicated that peptide P2R is preferred by CAPN5-PC and suggests a preference for arginine in the P2 subsite | These substrates were hydrolyzed by 1.6 µM CAPN5-PC p.G267S in the presence of 10 mM Ca^2+ | DABCYL-TPLKSPPPSPR (SEQ ID NO:3)-EDANS (Calpain Substrate III; Calbiochem; 40 µM) hydrolysis by 50 nM CAPN5-G267S protease core domain | These substrates were hydrolyzed by 1.6 µM CAPN5-PC p.G267S in the presence of 10 mM Ca^2+ |  |  |  |  |
| B2 |  |  |  |  |  |  |  | 11 | PR1476 displays activity in a CAPN5 dose-dependent manner | PR1478 also displays activity in a CAPN5 dose-dependent manner | a tryptophan was added to the N-terminus of PR1476, which makes PR1478 a better substrate for CAPN5 |
